Results: patent US7598290B2, “Cytotoxic agents comprising new C-2 modified taxanes” (priority 2005, dated 2009)

B1: huC242-taxoid (conjugate, chains of the INN, looked up)
VH: QVQLVQSGAEVKKPGETVKISCKASDYTFTYYGMNWVKQAPGQGLKWMGWIDTTTGEPTYAQKFQGRIAFSLETSASTAYLQIKSLKSEDTATYFCARRGPYNWYFDVWGQGTTVTVSS
VL: DIVMTQSPLSVPVTPGEPVSISCRSSKSLLHSNGNTYLYWFLQRPGQSPQLLIYRMSNLVSGVPDRFSGSGSGTAFTLRISRVEAEDVGVYYCLQHLEYPFTFGPGTKLELK
modifications: taxoid payload conjugate

Experiments:
[1] = test system: human melanoma cells, A-375; assay: In vitro potency and specificity, WST-8 assay, antigen negative A-375 cells; type: cell-based; conditions: for IC50: A-375 (antigen negative), 4 days incubation, WST-8
Description: (§1) In vitro potency and specificity of huC242-Taxoid conjugate. Samples of free taxoid or huC242-Taxoid conjugate were added to a 96-well flat bottomed tissue culture plate and titrated using serial dilutions ranging from 1×10^−12 M to 3×10^−7 M. Human colon tumor cells, COLO 205, or human melanoma cells, A-375, were added to the wells in such a way that there were triplicate samples for each drug concentration for each cell line. The plates were incubated at 37° C. in an atmosphere of 5% CO2 for 4 days.
(§2) At the end of the incubation period, 20 μl of the tetrazolium reagent WST-8 (2-(2-methoxy-nitrophenyl)-3-(4-nitrophenyl)-5-(2,4-disulfophenyl)-2-tetrazolium, monosodium salt]) was added to each well, and the plates were returned to the incubator for 2 hours. The absorbance in each well of the plates was then measured using the Molecular Devices plate reader at 450 nm. Surviving fraction of cells at each concentration of taxoid or conjugate are plotted in FIGS. 2 a,b.

[2] = test system: Human colon tumor cells, COLO 205; assay: In vitro potency and specificity, WST-8 assay, antigen positive COLO 205 cells; type: cell-based; conditions: COLO 205 (antigen positive), 4 days incubation
Description: as §1, §2

| Molecule | IC50 ([1]; Homo sapiens, 96 h) [pM] | IC50 ([2]; Homo sapiens, 96 h) [pM] | IC50 [1] [pM] | antigen negative cells less sensitive than COLO 205 ([1]; A-375 versus COLO 205) | IC50 [2] [pM] |
| --- | --- | --- | --- | --- | --- |
| CSSC(C)(C)CCC(=O)O[C@H]1C(=O)[C@@]2(C)[C@H]([C@H](OC(=O)c3ccco3)[C@]3(O)C[C@H](OC(=O)[C@H](O)[C@@H](NC(=O)OC(C)(C)C)c4ccco4)C(C)=C1C3(C)C)[C@]1(OC(C)=O)CO[C@@H]1C[C@@H]2O [IGT-16-141, 3′-dephenyl-3′-(2-furyl)-2-debenzoyl-2-(2-furoyl)-10-(4,4-dimethyl-4-methyldithiobutanoyl)-docetaxel] | ~800 | ~800 |  |  |  |
| B1 |  |  | 29000 | about 94 fold | 310 |
